Measured values: patent publication US20160333063

Target: endogenous tau of wild-type mouse primary cortical neurons, P10637
Sequence (P10637 other isoform, or with tags, fused parts or gaps): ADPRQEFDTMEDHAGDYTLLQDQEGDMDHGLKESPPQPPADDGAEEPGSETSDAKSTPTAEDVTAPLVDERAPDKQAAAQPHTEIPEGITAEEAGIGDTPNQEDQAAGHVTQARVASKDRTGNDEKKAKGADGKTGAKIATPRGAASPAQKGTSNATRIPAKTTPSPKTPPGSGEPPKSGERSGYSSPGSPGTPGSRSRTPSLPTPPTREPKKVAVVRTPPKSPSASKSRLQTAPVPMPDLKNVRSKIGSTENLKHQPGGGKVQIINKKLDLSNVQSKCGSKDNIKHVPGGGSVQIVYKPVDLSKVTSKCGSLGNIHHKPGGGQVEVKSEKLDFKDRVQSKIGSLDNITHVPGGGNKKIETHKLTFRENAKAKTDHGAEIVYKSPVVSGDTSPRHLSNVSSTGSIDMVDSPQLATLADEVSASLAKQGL

B1: caspase 3 (activated, cleaved caspase 3) of mouse primary cortical neurons (protein)
chain: SGIYLDSSYKMDYPEMGICIIINNKNFHKSTGMSSRSGTDVDAANLRETFMGLKYQVRNKNDLTREDILELMDSVSKEDHSKRSSFVCVILSHGDEGVIYGTNGPVELKKLTSFFRGDYCRSLTGKPKLFIIQACRGTELDCGIETDSGTDEEMACQKIPVEADFLYAYSTAPGYYSWRNSKDGSWFIQSLCSMLKLYAHKLEFMHILTRVNRKVATEFESFSLDSTFHAKKQIPCIVSMLTKELYFYH
- tau cleaved at Asp421 (TauC3 western blot, TauC3 to total tau): did result in increased cleavage of tau as measured by TauC3 western blot
